# Laboratory results published in patent publication US20200362024A1, “BIOLOGICAL MATERIALS AND USES THEREOF” (IMPERIAL INNOVATIONS LIMITED, priority 2009, published 2020).
# Legend:
# [1] = test system: primary human macrophages; experiment: Cytokine synthesis in primary human macrophages stimulated with tenascin-C or its domains; assay type: cell-based
# Protocol: Human monocytes were isolated from peripheral blood (London Blood Bank) and macrophages were derived from monocytes after differentiation for 4 days with 100 ng/ml of M-CSF as previously described (Foxwell (1998)).
# Immediately after isolation, RA membrane cells and macrophages were cultured at 1×10^5 cells/well in RPMI 1640 containing 10% (v/v) FBS and 100 U/ml (Units/ml) penicillin/streptomycin in 96-well tissue culture plates for 24 hours before stimulation. Synovial fibroblasts (used only at either passage number 2 or 3) were cultured at 1×10^4 cells/well in DMEM containing 10% (v/v) FBS and 100 U/ml penicillin/streptomycin in 96-well tissue culture plates for 24 hours before stimulation.
# (§1) Cells were incubated for 24 hours at 37° C. with the indicated doses of tenascin-C and recombinant tenascin-C fragments (1.0 μM-1.0 nM). Cells were also stimulated where indicated with LPS (1 ng/ml for human macrophages, 10 ng/ml for human fibroblasts, RA membrane cells and HEKs, 100 ng/ml for MEFS and BMDMs and 10 ng/ml for HEKS), PAM3 (10 ng/ml for human macrophages, human fibroblasts, and HEKs, 100 ng/ml for MEFs and BMDMs), murine IL-1 (5 ng/ml for MEFS) and murine TNF-α (100 ng/ml for MEFS). Unless specifically stated otherwise rough LPS was used for in vitro studies.
# Where stated, cells were pre-incubated with 10 μg/ml anti-CD14 antibody, 10 μg/ml IL1 receptor antagonist, 10 μg/ml anti-TLR2 antibody, 25 μg/ml anti-TLR4 antibody, 10 or 25 μg/ml isotype control antibody, 25 μg/ml polymyxin B, or 1 μg/ml msbB LPS, for 30 minutes at 37° C. before stimulation. Where stated, recombinant tenascin-C and FBG, and LPS were boiled for 15 minutes before addition to cells
# (§2) Supernatants were subsequently examined for the presence of the cytokines TNF-α, IL-6, and IL-8 by enzyme-linked immunosorbent assay (ELISA) according to the manufacturer's instructions. Absorbance was read on a spectrophotometric ELISA plate reader (Labsystems Multiscan Biochromic, Vantaa, Finland) and analyzed using the Ascent software program (Thermo Labsystems, Altrincham, UK).
# [2] = test system: knee joint of TLR2 and TLR4 null mice; experiment: Intra-articular injection of FBG in TLR2 and TLR4 null mice; assay type: in vivo; conditions: 1 μg FBG intra-articular, 3 days
# Description: (§3) Homozygous TLR2 and TLR4 deficient mice on a C57BL/6 background (an inbred strain of mice with a black coat) were obtained from B&K Universal (Hull, UK) Hoshino (1999) and Takeuchi (1999). Homozygous MyD88 deficient mice on a C57BL/6 background were provided by the Sanger Institute (Cambridge, UK). Age matched congenic inbred wild type C57B/L6 mice were obtained from Charles River (Margate, UK). For isolation of mouse embryo fibroblasts one female aged 8-10 weeks was mated with two males aged 8-10 weeks. For isolation of bone marrow derived macrophages mice were female and between 10-12 weeks of age at the time of experimentation.
# Wild type mice were anesthetized by intraperitoneal injection of 150 μl of Hypnorm diluted 1:10 in sterile water and then injected with 100 ng, 1 or 3 μg FBG in 10 μl of sterile PBS into the right knee joint using a sterile 33-gauge microcannula. Control mice received an injection of 10 μl PBS alone or were not injected.
# On days 3 and 7, mice were euthanized, the knee joints were excised and fixed in 10% (volume/volume) buffered formalin, decalcified, with 10% EDTA and processed to paraffin.
# Coronal tissue sections (4 μm) were cut at 7 depths throughout the joint; 80 μm apart and stained with hematoxylin and eosin or Safranin-O to assess joint pathology. Histopathologic changes were scored using the following parameters as described in Van Lent (2006). […]
# [3] = test system: MyD88 deficient mouse embryonic fibroblasts; experiment: Cytokine synthesis in mouse embryonic fibroblasts from MyD88 deficient mice; assay type: cell-based; conditions: 24 h; FBG 1 μM, PAM3, LPS, TNFα 100 ng/ml, IL-1 5 ng/ml
# Description: as §3, with “Homozygous” for “Homozygous TLR2 and TLR4 deficient mice on a C57BL/6 background (an inbred strain of mice with a black coat) were obtained from B&K Universal (Hull, UK) Hoshino (1999) and Takeuchi (1999). Homozygous”
# MEFs express high levels of mRNA of all 9 murine TLRs and are specifically and highly responsive to TLR ligand activation. […] Fibroblasts were cultured at 2×10^4 cells/well in DMEM containing 10% (v/v) FBS and 100 U/ml penicillin/streptomycin in 96-well tissue culture plates for 24 hours before stimulation.
# as §1, §2
molecule,measurement,setting,value
"FBG: recombinant fibrinogen-like globe, 227 amino acid globular domain at the C terminal of tenascin-C (protein) GLLYPFPKDCSQAMLNGDTTSGLYTIYLNGDKAEALEVFCDMTSDGGGWIVFLRRKNGRENFYQNWKAYAAGFGDRREEFWLGLDNLNKITAQGQYELRVDLRDHGETAFAVYDKFSVGDAKTRYKLKVEGYSGTAGDSMAYHNGRSFSTFDKDTDSAITNCALSYKGAFWYRNCHRVNLMGRYGDNNHSQGVNWFHWKGHEHSIQFAEMKLRPSNFRNLEGRRKRA","TNF-α, IL-6 and IL-8 synthesis in human macrophages","[1]; 1.0 μM tenascin-C domains, 24 h",stimulated
same,cytokine stimulation: heat sensitivity and effect of polymyxin B,"[1]; boiled 15 minutes, 25 μg/ml polymyxin B pre-incubation, human macrophages and synovial fibroblasts",heat sensitive and unaffected by polymyxin B
same,joint inflammation in TLR2 null mice,[2],able to induce
same,cytokine synthesis in embryonic fibroblasts with targeted deletion of MyD88,[3],does not stimulate
